# In patent publication US12421510B2, “Peptide, a complex and a method for treating cancer” (TECHNION RESEARCH & DEVELOPMENT FOUNDATION LIMITED, priority 2018, dated 2025):
# Entries after “also recorded” stand apart in the source; their conditions may differ.
# Tests used:
# Assay type in all cases: biochemical
# p105 [1] = target: T1, p105 (Homo sapiens, UniProt P19838); assay: Competition by synthetic KPC1-derived peptides of p105 ubiquitination by KPC1-Δ1-967 in reconstituted cell-free system; settings: compared to 6 amino acids ILVRLW peptide
# T1 sequence (P19838 1-968): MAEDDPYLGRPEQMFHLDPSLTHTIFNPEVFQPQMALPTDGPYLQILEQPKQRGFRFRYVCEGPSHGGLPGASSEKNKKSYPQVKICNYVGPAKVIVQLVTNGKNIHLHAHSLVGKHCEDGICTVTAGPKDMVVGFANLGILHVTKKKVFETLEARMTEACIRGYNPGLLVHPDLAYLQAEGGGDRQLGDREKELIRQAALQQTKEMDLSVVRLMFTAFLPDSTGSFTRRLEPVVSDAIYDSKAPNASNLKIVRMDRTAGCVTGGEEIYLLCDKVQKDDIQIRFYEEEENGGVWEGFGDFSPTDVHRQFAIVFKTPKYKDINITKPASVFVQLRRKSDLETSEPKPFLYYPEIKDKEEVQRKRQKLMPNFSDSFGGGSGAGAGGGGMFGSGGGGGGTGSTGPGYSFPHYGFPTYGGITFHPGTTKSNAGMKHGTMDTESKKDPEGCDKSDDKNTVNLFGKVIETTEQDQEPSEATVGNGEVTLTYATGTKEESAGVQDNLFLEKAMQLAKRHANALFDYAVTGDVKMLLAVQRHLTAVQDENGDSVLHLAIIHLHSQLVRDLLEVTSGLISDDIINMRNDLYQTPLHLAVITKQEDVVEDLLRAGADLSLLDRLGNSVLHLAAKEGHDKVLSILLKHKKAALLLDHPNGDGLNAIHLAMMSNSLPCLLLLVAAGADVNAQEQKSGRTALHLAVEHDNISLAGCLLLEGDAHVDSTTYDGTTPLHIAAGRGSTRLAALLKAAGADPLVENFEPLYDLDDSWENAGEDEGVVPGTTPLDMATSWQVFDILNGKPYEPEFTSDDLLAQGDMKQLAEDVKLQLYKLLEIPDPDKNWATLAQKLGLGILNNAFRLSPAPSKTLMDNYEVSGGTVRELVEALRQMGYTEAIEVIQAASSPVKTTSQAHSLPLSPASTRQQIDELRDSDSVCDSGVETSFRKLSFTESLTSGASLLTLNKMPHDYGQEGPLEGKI
# Excerpt: Presented is the change (in %) of unconjugated p105 remained following addition of increasing concentrations of the peptides (compared to a system to which a peptide was not added; lane 3). Amid denotes N-terminal amidation and Ac denotes C-terminal acetylation.
# Presented is the change (in %) of unconjugated p105 remained following addition of increasing concentrations of the peptides (compared to a system to which a peptide was not added; lane 2).
# To further confirm that 7 amino acids WILVRLW of KPC1-Δ1-967 (SEQ ID. No. 5) are involved in the interaction with p105, an experiment was designed in which the binding of p105 to the ligase was competed with a synthetic peptides derived from KPC1.
# p105 [2] = target: T1, p105; assay: Ubiquitination of p105 by purified KPC1 species in cell-free conjugation assay; settings: reconstituted cell-free system, in vitro translated 35S-labeled p105, purified Ub, E1, E2, UbAl, ATP
# Excerpt: FIGS. 4A and 4B represent western blots showing in vitro ubiquitination of p105 by mutated species of KPC1: FIG. 4A: In vitro translated and ^35S-labeled p105 was ubiquitinated by purified KPC1-Δ1-967-6xHIS (lanes 2-4) or KPC1-Δ1-974-6xHIS (lanes 5-7) in a reconstituted cell-free system. 4B) In vitro translated and ^355-labeled p105 was ubiquitinated by purified KPC1-Δ1-967-6xHIS (lanes 2,5,6), KPC1-Δ1-974-6xHIS (lane 3), KPC1-Δ967-1043-6xHIS (lane 4), WILVRLW-KPC1-Δ1-1039-6xHIS (lanes 7-8) or WILVRLW-KPC1-Δ1-1061-6xHIS (lanes 9-10) in a reconstituted cell-free system.
# In order to assess if the interaction between two proteins leads to the conjugation of the substrate p105, ubiquitination reaction was performed in cell free system. The conjugation reaction was carried out in the presence of purified Ub, E1, E2, UbAl, ATP and KPC1—either wild-type or different mutant species. Samples were resolved via SDS-PAGE and the 35S-labeled p105 and its adducts were visualized using autoradiography. […] In addition, the shorter versions of KPC1 in which the 7 amino acids sequence were brought closer to RING domain, the active site of the enzyme were prepared. Both truncated KPC1 proteins that harbor the 7 amino acid sequence, WILVRLW-KPC1-Δ1-1039 (SEQ ID. No. 6) and WILVRLW-KPC1-Δ1-1061 (SEQ ID. No. 7), modified p105 (FIG. 4B, lanes 7-10).
# p105 [3] = target: T1, p105; assay: Processing of p105 by purified proteasome in cell free system in presence of KPC1 deleted species; settings: 35S-labeled p105 (FIG. 7)
# Excerpt: In vitro translated and ^355-labeled p105 was processed by purified proteasome (lanes 2-7) in the presence of purified KPC1-Δ1-967-6xHIS (lanes 4-5) or KPC1-Δ1-974-6xHIS (lanes 6-7) as indicated. Lane 8 represents processing of p105 in the system that contained Fraction 2. Cell extract is fractionated over the anion-exchange resin diethylaminoethyl (DEAE)-cellulose, where ubiquitin is eluted in Fraction I, the unabsorbed, flow-through material that contains also certain E2 enzymes. Fraction II, the high salt eluate, contains E1, the remaining E2s, all the E3s, and the 26S proteasome, but not free ubiquitin. Processing is the amount of p50 produced in the reaction. All values relate to 100%, which is the set point for processing of p105 in a system that lacks proteasome and KPC1 (lane 1).
molecule,measurement,setting,value
"WILVRLW [synthetic 7 amino acids peptide, positions 968-974 of KPC1]",inhibition of ubiquitination of p105 by KPC1-Δ1-967,p105 [1]; non-modified peptides (FIG. 6),inhibited ubiquitination of p105 by KPC1-Δ1-967; also recorded: inhibits ubiquitination of p105
same,inhibition of ubiquitination of p105 by KPC1-Δ1-967,p105 [1]; peptides modified by N-terminal amidation and C-terminal acetylation (FIG. 5),inhibited ubiquitination of p105 by KPC1-Δ1-967; also recorded: inhibits ubiquitination of p105
"WILVRLW-KPC1-Δ1-1061: truncated KPC1 with the 7 amino acid sequence brought closer to RING domain, SEQ ID NO: 7 (protein) WILVRLWFVDSRQLKVCATCFDLSVSLLRVLEMTITLVPEIFLDWTRPTSEMLLRRLAQLLNQVLNRVTAERNLFDRVVTLRLPGLESVDHYPILVAVTGILVQLLVRGPASEREQATSVLLADPCFQLRSICYLLGQPEPPAPGTALPAPDRKRFSLQSYADYISADELAQVEQMLAHLTSASAQAAAASLPTSEEDLCPICYAHPISAVFQPCGHKSCKACINQHLMNNKDCFFCKTTIVSVEDWEKGANTSTTSSAA",ubiquitination of p105,p105 [2],modified p105
"KPC1-Δ1-974-6xHIS: purified 6xHIS KPC1 deleted species lacking the 7 amino acids responsible for binding to p105 (protein, left off: small tags and cut ends) RGCGFGYRYTRLPHLLKTKLEDANLPSLQKPCPSTLLQQHMADLLQQGPDVAPSFLNSVLNQLNWAFSEFIGMIQEIQQAAERLERNFVDSRQLKVCATCFDLSVSLLRVLEMTITLVPEIFLDWTRPTSEMLLRRLAQLLNQVLNRVTAERNLFDRVVTLRLPGLESVDHYPILVAVTGILVQLLVRGPASEREQATSVLLADPCFQLRSICYLLGQPEPPAPGTALPAPDRKRFSLQSYADYISADELAQVEQMLAHLTSASAQAAAASLPTSEEDLCPICYAHPISAVFQPCGHKSCKACINQHLMNNKDCFFCKTTIVSVEDWEKGANTSTTSSAA",processing of p105 by purified proteasome,p105 [3],could not stimulate processing
"KPC1-Δ1-967-6xHIS: purified 6xHIS KPC1 deleted species that has the sequence of WILVRLW (protein, left off: small tags and cut ends) WILVRLWRGCGFGYRYTRLPHLLKTKLEDANLPSLQKPCPSTLLQQHMADLLQQGPDVAPSFLNSVLNQLNWAFSEFIGMIQEIQQAAERLERNFVDSRQLKVCATCFDLSVSLLRVLEMTITLVPEIFLDWTRPTSEMLLRRLAQLLNQVLNRVTAERNLFDRVVTLRLPGLESVDHYPILVAVTGILVQLLVRGPASEREQATSVLLADPCFQLRSICYLLGQPEPPAPGTALPAPDRKRFSLQSYADYISADELAQVEQMLAHLTSASAQAAAASLPTSEEDLCPICYAHPISAVFQPCGHKSCKACINQHLMNNKDCFFCKTTIVSVEDWEKGANTSTTSSAA",processing of p105 by purified proteasome,p105 [3],stimulates the processing of p105 by purified proteasome
